# Results from patent US11672767.
# B1: plasmin secreted by the encapsulated cells (hMSCs) (protein)
# chain: KVYLSECKTGNGKNYRGTMSKTKNGITCQKWSSTSPHRPRFSPATHPSEGLEENYCRNPDNDPQGPWCYTTDPEKRYDYCDILECEEECMHCSGENYDGKISKTMSGLECQAWDSQSPHAHGYIPSKFPNKNLKKNYCRNPDRELRPWCFTTDPNKRWELCDIPRCTTPPPSSGPTYQCLKGTGENYRGNVAVTVSGHTCQHWSAQTPHTHNRTPENFPCKNLDENYCRNPDGKRAPWCHTTNSQVRWEYCKIPSCDSSPVSTEQLAPTAPPELTPVVQDCYHGDGQSYRGTSSTTTTGKKCQSWSSMTPHRHQKTPENYPNAGLTMNYCRNPDADKGPWCFTTDPSVRWEYCNLKKCSGTEASVVAPPPVVLLPDVETPSEEDCMFGNGKGYRGKRATTVTGTPCQDWAAQEPHRHSIFTPETNPRAGLEKNYCRNPDGDVGGPWCYTTNPRKLYDYCDVPQCAAPSFDCGKPQVEPKKCPGRVVGGCVAHPHSWPWQVSLRTRFGMHFCGGTLISPEWVLTAAHCLEKSPRPSSYKVILGAHQEVNLEPHVQEIEVSRLFLEPTRKDIALLKLSSPAVITDKVIPACLPSPNYVVADRTECFITGWGETQGTFGAGLLKEAQLPVIENKVCNRYEFLNGRVQSTELCAGHLAGGTDSCQGDSGGPLVCFEKDKYILQGVTSWGLGCARPNKPGVYVRVSRFVTWIEGVMRNN
# How the values were obtained:
# BMP2-P5SPCP NPs = target: T1, BMP2-P5SPCP NPs (UniProt P12643)
# T1 sequence 1: CGGKGGKFKTGG
# T1 sequence 2: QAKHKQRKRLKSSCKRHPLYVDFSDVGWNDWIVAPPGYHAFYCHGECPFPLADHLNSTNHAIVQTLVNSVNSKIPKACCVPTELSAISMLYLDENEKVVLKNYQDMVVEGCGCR
# BMP2-PxSPCP NPs = target: T2, BMP2-PxSPCP NPs (UniProt P12643)
# T2 sequence 1: CGGKGGKFKTGG
# T2 sequence 2: T1 sequence 2
# BMP2-PxSPCP NPs, P12643 = target: T3, BMP2-PxSPCP NPs, P12643
# T3 chain 1: CGGKGGKFKTGG
# T3 chain 2: T1 sequence 2
Molecule,"cumulative release of BMP2 from NPs co-encapsulated with plasmin in LPELA hydrogel, measured by BMP2 ELISA (BMP2-P5SPCP NPs)","release of BMP2 from NPs co-encapsulated with plasmin in LPELA hydrogel, measured by BMP2 ELISA (BMP2-PxSPCP NPs)","osteogenic activity (peak RUNX2 expression) of hMSCs co-encapsulated with the NPs (BMP2-PxSPCP NPs, P12643)"
plasmin,the cumulative release of BMP2 from the encapsulated BMP2-P5SPCP NPs was 60% after 21 days,gradually released to the medium with incubation time at a rate faster than BMP2-PxSP NPs but slower than the free BMP2,–
B1,–,–,The BMP2-PxSPCP NP groups showed significantly higher osteogenic activity compared to non-cleavable BMP2-PxSP NPs
